Results on two molecules are retold here after paper PMC8675206.

The target in one series is DNA-PKcs;Ku70;Ku80 (Homo sapiens (HeLa cells);Homo sapiens …, UniProt P78527;P12956;P13010 1-4128;2-609;2-732, ||). Kind of series: pull-down.
Another series deals with DNA-PKcs (Homo sapiens (HeLa cells), UniProt P78527 1-4128). The series is described as follows: HX-MS on bead-captured DNA.
DNA-PKcs, sequence (P78527 whole entry): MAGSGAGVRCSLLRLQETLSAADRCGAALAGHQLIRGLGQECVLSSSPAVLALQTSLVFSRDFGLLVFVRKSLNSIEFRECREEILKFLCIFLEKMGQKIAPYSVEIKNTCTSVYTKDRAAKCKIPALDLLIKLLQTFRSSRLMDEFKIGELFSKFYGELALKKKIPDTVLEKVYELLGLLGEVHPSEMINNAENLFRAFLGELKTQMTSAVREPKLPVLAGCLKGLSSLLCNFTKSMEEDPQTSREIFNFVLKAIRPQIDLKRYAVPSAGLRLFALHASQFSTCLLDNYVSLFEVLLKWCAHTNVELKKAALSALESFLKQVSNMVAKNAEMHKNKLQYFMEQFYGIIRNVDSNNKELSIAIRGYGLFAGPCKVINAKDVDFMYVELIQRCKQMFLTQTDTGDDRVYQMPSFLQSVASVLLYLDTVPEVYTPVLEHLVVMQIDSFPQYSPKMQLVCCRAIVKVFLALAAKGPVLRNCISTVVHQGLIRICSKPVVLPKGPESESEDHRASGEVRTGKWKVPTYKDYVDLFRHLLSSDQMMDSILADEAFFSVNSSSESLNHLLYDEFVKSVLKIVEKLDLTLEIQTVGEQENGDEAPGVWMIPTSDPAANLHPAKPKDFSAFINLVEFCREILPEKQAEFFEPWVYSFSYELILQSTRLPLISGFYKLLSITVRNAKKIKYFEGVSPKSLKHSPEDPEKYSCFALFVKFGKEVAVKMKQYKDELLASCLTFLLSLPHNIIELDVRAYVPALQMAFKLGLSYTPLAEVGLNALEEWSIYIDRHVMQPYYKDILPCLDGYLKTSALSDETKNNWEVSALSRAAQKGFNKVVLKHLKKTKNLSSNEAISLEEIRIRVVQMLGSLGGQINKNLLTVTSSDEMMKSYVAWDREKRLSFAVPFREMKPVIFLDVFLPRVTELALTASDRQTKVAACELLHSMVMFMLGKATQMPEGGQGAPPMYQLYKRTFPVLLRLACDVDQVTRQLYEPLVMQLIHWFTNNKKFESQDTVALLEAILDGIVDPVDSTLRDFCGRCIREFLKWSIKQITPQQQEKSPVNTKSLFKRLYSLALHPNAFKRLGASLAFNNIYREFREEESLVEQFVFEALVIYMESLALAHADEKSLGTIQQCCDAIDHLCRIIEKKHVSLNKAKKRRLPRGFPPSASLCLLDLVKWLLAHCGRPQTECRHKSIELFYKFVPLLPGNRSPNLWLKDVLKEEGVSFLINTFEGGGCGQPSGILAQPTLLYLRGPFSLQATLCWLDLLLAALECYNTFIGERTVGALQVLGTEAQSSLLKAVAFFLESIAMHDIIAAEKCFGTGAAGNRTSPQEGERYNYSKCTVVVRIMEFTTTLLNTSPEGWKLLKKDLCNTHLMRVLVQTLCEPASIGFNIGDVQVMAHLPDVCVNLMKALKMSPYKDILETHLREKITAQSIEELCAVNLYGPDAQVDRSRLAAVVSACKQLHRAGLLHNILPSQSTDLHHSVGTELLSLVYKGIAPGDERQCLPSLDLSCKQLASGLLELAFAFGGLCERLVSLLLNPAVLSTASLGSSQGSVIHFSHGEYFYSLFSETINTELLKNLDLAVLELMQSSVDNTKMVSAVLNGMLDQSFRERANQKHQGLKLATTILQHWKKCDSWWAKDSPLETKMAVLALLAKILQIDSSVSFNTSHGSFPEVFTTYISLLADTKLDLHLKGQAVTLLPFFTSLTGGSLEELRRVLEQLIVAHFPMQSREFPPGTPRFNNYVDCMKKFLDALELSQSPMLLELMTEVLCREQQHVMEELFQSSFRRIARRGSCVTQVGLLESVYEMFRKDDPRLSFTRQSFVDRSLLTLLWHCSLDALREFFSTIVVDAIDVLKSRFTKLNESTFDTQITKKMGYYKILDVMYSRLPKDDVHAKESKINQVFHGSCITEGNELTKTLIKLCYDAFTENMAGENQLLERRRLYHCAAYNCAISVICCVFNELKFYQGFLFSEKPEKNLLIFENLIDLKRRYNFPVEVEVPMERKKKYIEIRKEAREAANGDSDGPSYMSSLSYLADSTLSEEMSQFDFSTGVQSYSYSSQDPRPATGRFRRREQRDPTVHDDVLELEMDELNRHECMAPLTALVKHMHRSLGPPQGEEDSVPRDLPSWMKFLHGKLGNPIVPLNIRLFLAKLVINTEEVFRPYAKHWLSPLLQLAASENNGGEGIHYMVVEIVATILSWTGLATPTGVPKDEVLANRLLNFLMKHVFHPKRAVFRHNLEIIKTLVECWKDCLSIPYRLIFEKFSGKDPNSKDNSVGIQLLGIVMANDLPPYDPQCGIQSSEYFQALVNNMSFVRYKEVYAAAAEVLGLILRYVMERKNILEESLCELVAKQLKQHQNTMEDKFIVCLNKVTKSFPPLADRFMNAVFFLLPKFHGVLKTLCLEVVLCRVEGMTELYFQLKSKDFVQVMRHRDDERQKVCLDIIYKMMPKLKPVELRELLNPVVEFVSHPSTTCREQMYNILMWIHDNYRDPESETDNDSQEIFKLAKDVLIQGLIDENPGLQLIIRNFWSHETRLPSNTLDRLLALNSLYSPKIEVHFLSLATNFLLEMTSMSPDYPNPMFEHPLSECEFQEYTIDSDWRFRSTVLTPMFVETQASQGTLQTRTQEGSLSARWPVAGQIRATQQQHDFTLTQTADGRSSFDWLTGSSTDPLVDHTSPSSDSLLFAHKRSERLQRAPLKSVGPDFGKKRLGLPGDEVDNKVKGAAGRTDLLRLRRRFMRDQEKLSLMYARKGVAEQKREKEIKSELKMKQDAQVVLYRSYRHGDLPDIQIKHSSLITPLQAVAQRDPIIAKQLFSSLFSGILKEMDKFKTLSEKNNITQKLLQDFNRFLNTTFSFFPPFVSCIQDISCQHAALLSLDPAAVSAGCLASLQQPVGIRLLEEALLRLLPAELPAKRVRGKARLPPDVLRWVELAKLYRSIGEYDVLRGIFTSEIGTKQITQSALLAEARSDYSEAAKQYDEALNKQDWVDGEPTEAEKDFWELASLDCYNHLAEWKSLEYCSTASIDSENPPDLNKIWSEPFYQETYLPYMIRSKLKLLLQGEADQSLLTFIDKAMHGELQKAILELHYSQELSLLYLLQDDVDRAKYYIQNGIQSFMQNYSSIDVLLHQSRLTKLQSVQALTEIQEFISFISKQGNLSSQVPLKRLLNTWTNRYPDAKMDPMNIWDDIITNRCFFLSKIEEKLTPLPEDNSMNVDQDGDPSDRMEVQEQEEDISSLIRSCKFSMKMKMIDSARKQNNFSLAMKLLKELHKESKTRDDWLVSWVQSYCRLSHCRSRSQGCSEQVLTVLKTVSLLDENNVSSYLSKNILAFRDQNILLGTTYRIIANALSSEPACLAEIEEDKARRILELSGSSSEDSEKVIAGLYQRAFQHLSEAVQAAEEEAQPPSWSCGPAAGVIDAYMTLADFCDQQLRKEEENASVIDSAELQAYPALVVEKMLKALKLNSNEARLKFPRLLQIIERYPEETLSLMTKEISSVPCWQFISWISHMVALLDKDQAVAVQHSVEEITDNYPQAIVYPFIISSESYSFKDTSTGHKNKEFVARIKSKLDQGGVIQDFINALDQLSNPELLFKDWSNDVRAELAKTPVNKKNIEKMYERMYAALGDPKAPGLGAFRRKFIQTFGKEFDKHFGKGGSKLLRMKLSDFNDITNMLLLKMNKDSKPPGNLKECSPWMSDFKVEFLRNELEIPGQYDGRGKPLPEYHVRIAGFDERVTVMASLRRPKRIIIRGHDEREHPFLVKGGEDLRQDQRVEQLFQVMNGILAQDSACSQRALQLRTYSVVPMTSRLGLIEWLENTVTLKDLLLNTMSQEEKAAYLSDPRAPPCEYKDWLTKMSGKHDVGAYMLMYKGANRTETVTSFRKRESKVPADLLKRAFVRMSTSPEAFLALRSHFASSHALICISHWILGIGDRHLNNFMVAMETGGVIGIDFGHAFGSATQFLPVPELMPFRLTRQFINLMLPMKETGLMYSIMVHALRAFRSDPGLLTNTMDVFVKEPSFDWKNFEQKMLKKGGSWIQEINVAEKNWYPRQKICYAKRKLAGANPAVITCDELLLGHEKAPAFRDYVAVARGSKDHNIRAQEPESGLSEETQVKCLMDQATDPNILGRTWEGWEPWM

B1: 100bp blunt (dsDNA)
DNA 1: GCACAATCTTCTCGCGCAACGCGTCAGTGGGCTGATCATTAACTATCCGCTGGATGACCAGGATGCCATTGCTGTGGAAGCTGCCTGCACTAATGTTCCG
DNA 2: CGGAACATTAGTGCAGGCAGCTTCCACAGCAATGGCATCCTGGTCATCCAGCGGATAGTTAATGATCAGCCCACTGACGCGTTGCGCGAGAAGATTGTGC
Consider B1, for which the binding result with DNA-PKcs;Ku70;Ku80 is recorded as “binds”.

B2: 25bp blunt (dsDNA)
DNA 1: AAGCTTGCATGCCTGCAGGTCGACC
DNA 2: GGTCGACCTGCAGGCATGCAAGCTT
As to B2, in the series with DNA-PKcs, the binding result is “binds”.
